The results in this text go back to patent publication US20190225705A1 (published 2019).

One may read the EC50 as the midpoint of the concentration-response curve. For orientation: IC50 means the midpoint of a concentration-inhibition curve. Low values mean inhibition by little substance, high ones a need for much substance.

Numbering of substitutions follows the chain as printed.

One assay deals with baboon FXI (Papio anubis (baboon)). Put plainly: ELISA. (In general: ELISA stands for enzyme-linked immunosorbent assay.)
For assay [1], the target named is T1, human coagulation factor XI (UniProt P03951 19-625). Put plainly: ELISA.
The target of assay [2] is T1, human coagulation factor XI. Put plainly: ELISA. The source holds these as a separate data set.
Assay [3] has the same target. Put plainly: Conversion Assay.
Assay [4] shares this target. Put plainly: ELISA. This is another data set of the same source.
The target is the same in assay [5]. Put plainly: FXIIa induced FXI conversion assay.
For assay [6] the target is unchanged. Put plainly: ELISA. The source holds these as a separate data set.
The target is the same in assay [7]. The assay can be described thus: ELISA. This is another data set of the same source.
Assay [8] shares this target. Put plainly: ELISA. The source holds these as a separate data set.

B1: 1A6 (antibody, V domains shown)
VH: QVTLKESGPGILKPSQTLSLTCSFSGFSLSTSGMGVGWIRQPSGKGLEWLAHIWWDDDKYYNPSLKSQLTISKDTSRNQVFLKITSVDAADTATYYCARKRSSVVAHYYAMDYWGQGTSVTVSS
VL: DIVLTQSPASLAVSLGQRATISCKASQSVDYDGDSYLNWYQQKPGQPPKLLIYAASNLESGIPARFSGSGSGTDFTLNIHPVEEEDAATYYCQQSNGDPWTFGGGTKLEIK
B1 displayed an EC50 with baboon FXI of 160 pM.

B2: murine anti-FXI antibody 1A6 (antibody, V domains shown)
VH: B1 VH
VL: B1 VL
For the molecule B2, the results for the EC50 in assay [1], in assay [2] and in assay [3] were 150 pM, 154 pM and 500 pM, respectively.

B3: humanized and germlined anti-FXI antibody TPP-3583 (antibody, V domains shown)
VH: EVTLRESGPALVKPTQTLTLTCTFSGFSLSTSGMGVGWIRQPPGKALEWLAHIDWDDDKYYSPSLKSRLTISKDTSKNQVVLTMTNMDPVDTATYYCARIRSSVYAHYYGMDYWGQGTTVTVSS
VL: DIVMTQSPDSLAVSLGERATISCKASQSVLYSGDNYLNWYQQKPGQPPKLLIYAASTLESGIPDRFSGSGSGTDFTLTISSLQAEDVAVYYCQQYNGDPWTFGGGTKVEIKR
Turning to B3, the figures for the EC50 in [1], in assay [4] and in assay [3] were 200 pM, 219 pM and 600 pM, respectively. The IC50 in [5] came to 598 pM.

B4: TPP-3577 (antibody, V domains shown)
VH: B3 VH with G35C, P63T, Y113V
VL: B3 VL with A25S
Turning to B4, in the assay with baboon FXI, the EC50 was 160 pM.

B5: TPP-3238 (antibody, V domains shown)
VH: B3 VH with G37S, P63T, A106Y, H107Y, Y113V
VL: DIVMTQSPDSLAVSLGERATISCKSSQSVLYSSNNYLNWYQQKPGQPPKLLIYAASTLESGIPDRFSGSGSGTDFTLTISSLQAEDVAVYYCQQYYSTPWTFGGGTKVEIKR
Take B5: the EC50 with baboon FXI turned out to be 280 pM.

B6: TPP-3290 (antibody, V domains shown)
VH: B3 VH with G37S, P63T
VL: B3 VL with D98T
B6: the EC50 in the assay with baboon FXI was found to be 140 pM.

B7: TPP-3583 (antibody, V domains shown)
VH: B3 VH
VL: B3 VL
B7 showed an EC50 in the assay with baboon FXI of 130 pM.

B8: humanized and germlined anti-FXI antibody TPP-3577 (antibody, V domains shown)
VH: B3 VH with G35C, P63T, Y113V
VL: B3 VL with A25S
Take B8: the EC50 is 190 pM in assay [1], 119 pM in assay [6] and 400 pM in assay [3].

B9: humanized and germlined anti-FXI antibody TPP-3290 (antibody, V domains shown)
VH: B3 VH with G37S, P63T
VL: B3 VL with D98T
For B9, the concentration for a half-maximal effect (EC50) amounted to 170 pM in [1], 168 pM in [7] and 400 pM in assay [3].

B10: humanized and germlined anti-FXI antibody TPP-3238 (antibody, V domains shown)
VH: B3 VH with G37S, P63T, A106Y, H107Y, Y113V
VL: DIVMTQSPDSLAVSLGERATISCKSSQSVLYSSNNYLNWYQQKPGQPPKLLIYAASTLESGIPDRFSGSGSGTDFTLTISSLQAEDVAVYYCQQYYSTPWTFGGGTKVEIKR
Consider B10, for which the EC50 amounted to 160 pM in assay [1], 165 pM in assay [8] and 600 pM in assay [3].
